Experimental data reported in US20230183314A1.

How the values were obtained:
[1] = target: human prostate specific membrane antigen (PSMA) (human) (UniProt Q04609); experiment: flow cytometry, 22Rv1 cells (low PSMA expression) stained with the PE conjugate; number printed over the white bar
[2] = target: human prostate specific membrane antigen (PSMA) (human) (UniProt Q04609); experiment: flow cytometry, LNCaP cells (high PSMA expression) stained with the PE conjugate; number printed over the white bar

human prostate specific membrane antigen (PSMA) (human), sequence (Q04609 whole entry): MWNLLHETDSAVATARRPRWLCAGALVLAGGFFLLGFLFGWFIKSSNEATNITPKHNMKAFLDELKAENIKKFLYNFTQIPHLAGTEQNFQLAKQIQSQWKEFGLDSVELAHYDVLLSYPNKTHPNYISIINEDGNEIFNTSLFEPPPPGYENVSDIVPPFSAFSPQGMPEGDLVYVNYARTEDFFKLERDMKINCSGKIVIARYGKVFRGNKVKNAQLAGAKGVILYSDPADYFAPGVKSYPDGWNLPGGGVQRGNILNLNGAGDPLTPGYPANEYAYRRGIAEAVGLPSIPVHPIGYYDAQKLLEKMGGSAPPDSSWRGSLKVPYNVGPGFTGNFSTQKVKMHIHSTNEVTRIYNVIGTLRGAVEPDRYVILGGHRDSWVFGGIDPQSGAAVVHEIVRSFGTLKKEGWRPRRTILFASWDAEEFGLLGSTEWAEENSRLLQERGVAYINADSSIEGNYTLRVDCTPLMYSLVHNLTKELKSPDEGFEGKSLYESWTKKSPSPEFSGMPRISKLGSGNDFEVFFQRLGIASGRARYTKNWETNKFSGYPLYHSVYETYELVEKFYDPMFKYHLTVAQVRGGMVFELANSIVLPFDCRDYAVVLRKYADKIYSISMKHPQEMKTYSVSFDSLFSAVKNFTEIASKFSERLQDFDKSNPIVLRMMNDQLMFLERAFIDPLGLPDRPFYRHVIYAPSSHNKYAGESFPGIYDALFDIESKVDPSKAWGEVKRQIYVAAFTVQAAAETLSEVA

## Anti PSMA antibody-PE conjugate from Biolegend (clone LNI-17 catalog #342504)
[1]
  MFI: 13.7
[2]
  MFI: 263
